# Results as given in patent US20230002480A1.
# Assays:
# Experiment in all cases: cell-based or functional assay
# [1] = target: HIV-1 Env of pseudovirus BF1266.431a (HIV-1)
# [2] = target: HIV-1 Env of pseudovirus 9004SS_A3_4 (HIV-1)
# [3] = target: HIV-1 Env of pseudovirus Q769.d22 (HIV-1)
# [4] = target: HIV-1 Env of pseudovirus 249M B10 (HIV-1)
# [5] = target: HIV-1 Env of pseudovirus 1056_10_TA11_1826 (HIV-1)
# [6] = target: HIV-1 Env of pseudovirus TRJO4551.58 (HIV-1)
# [7] = target: HIV-1 Env of pseudovirus CNE19 (HIV-1)
# [8] = target: HIV-1 Env of pseudovirus ZM53M.PB12 (HIV-1)
# [9] = target: HIV-1 Env of pseudovirus ZM109F.PB4 (HIV-1)
# [10] = target: HIV-1 Env of pseudovirus Ce1086_B2 (HIV-1)
# [11] = target: HIV-1 Env of pseudovirus SC422661.8 (HIV-1)
# [12] = target: HIV-1 Env of pseudovirus ZM197M.PB7 (HIV-1)
# [13] = target: HIV-1 Env of pseudovirus Ce2010_F5 (HIV-1)
# [14] = target: HIV-1 Env of pseudovirus CNE58 (HIV-1)
# [15] = target: HIV-1 Env of pseudovirus Ce0393_C3 (HIV-1)
# [16] = target: HIV-1 Env of pseudovirus ZM249M.PL1 (HIV-1)
# [17] = target: HIV-1 Env of pseudovirus 62357_14_D3_4589 (HIV-1)
# [18] = target: HIV-1 Env of pseudovirus CAP210.2.00.E8 (HIV-1)
# [19] = target: HIV-1 Env of pseudovirus WITO4160.33 (HIV-1)
# [20] = target: HIV-1 Env of pseudovirus HIV-16055-2.3 (HIV-1)
# [21] = target: HIV-1 Env of pseudovirus Ce0682_E4 (HIV-1)
substance,measurement,setting,value
10E8 (antibody),"IC50, titer in TZM.bl cells",[1],2.69 µg/mL
same,"IC80, titer in TZM.bl cells",[1],> 10 µg/mL
same,"IC50, titer in TZM.bl cells",[2],1.16 µg/mL
same,"IC80, titer in TZM.bl cells",[2],6.76 µg/mL
same,"IC50, titer in TZM.bl cells",[3],1.67 µg/mL
same,"IC80, titer in TZM.bl cells",[3],10 µg/mL
same,"IC50, titer in TZM.bl cells",[4],1.27 µg/mL
same,"IC80, titer in TZM.bl cells",[4],9.05 µg/mL
same,"IC50, titer in TZM.bl cells",[5],0.134 µg/mL
same,"IC80, titer in TZM.bl cells",[5],1.03 µg/mL
same,"IC50, titer in TZM.bl cells",[6],0.475 µg/mL
same,"IC80, titer in TZM.bl cells",[6],4.78 µg/mL
same,"IC50, titer in TZM.bl cells",[7],0.666 µg/mL
same,"IC80, titer in TZM.bl cells",[7],6.49 µg/mL
same,"IC50, titer in TZM.bl cells",[8],3.98 µg/mL
same,"IC80, titer in TZM.bl cells",[8],> 10 µg/mL
same,"IC50, titer in TZM.bl cells",[9],0.295 µg/mL
same,"IC80, titer in TZM.bl cells",[9],1.89 µg/mL
same,"IC50, titer in TZM.bl cells",[10],1.16 µg/mL
same,"IC80, titer in TZM.bl cells",[10],6.93 µg/mL
same,"IC50, titer in TZM.bl cells",[11],0.445 µg/mL
same,"IC80, titer in TZM.bl cells",[11],2.71 µg/mL
same,"IC50, titer in TZM.bl cells",[12],0.148 µg/mL
same,"IC80, titer in TZM.bl cells",[12],0.802 µg/mL
same,"IC50, titer in TZM.bl cells",[13],1.84 µg/mL
same,"IC80, titer in TZM.bl cells",[13],8.61 µg/mL
same,"IC50, titer in TZM.bl cells",[14],1.29 µg/mL
same,"IC80, titer in TZM.bl cells",[14],8.27 µg/mL
same,"IC50, titer in TZM.bl cells",[15],1.18 µg/mL
same,"IC80, titer in TZM.bl cells",[15],7.42 µg/mL
same,"IC50, titer in TZM.bl cells",[16],1.51 µg/mL
same,"IC80, titer in TZM.bl cells",[16],6.29 µg/mL
same,"IC50, titer in TZM.bl cells",[17],0.119 µg/mL
same,"IC80, titer in TZM.bl cells",[17],1.06 µg/mL
same,"IC50, titer in TZM.bl cells",[18],0.798 µg/mL
same,"IC80, titer in TZM.bl cells",[18],3.89 µg/mL
same,"IC50, titer in TZM.bl cells",[19],0.094 µg/mL
same,"IC80, titer in TZM.bl cells",[19],1.23 µg/mL
same,"IC50, titer in TZM.bl cells",[20],0.722 µg/mL
same,"IC80, titer in TZM.bl cells",[20],6.5 µg/mL
same,"IC50, titer in TZM.bl cells",[21],1.22 µg/mL
same,"IC80, titer in TZM.bl cells",[21],7.71 µg/mL
N49P9 (antibody),IC50,[1],0.154 µg/mL
same,IC80,[1],0.519 µg/mL
same,MPI,[1],99
same,IC50,[3],0.036 µg/mL
same,IC80,[3],0.123 µg/mL
same,MPI,[3],100
same,IC50,[4],0.203 µg/mL
same,IC80,[4],1.41 µg/mL
same,MPI,[4],97
same,IC50,[5],0.386 µg/mL
same,IC80,[5],1.32 µg/mL
same,MPI,[5],100
same,IC50,[6],0.036 µg/mL
same,IC80,[6],0.128 µg/mL
same,MPI,[6],100
same,IC50,[7],0.031 µg/mL
same,IC80,[7],0.136 µg/mL
same,MPI,[7],100
same,IC50,[8],0.362 µg/mL
same,IC80,[8],1.14 µg/mL
same,MPI,[8],100
same,IC50,[9],0.075 µg/mL
same,IC80,[9],0.349 µg/mL
same,MPI,[9],99
same,IC50,[10],0.341 µg/mL
same,IC80,[10],1.69 µg/mL
same,MPI,[10],97
same,IC50,[11],0.241 µg/mL
same,IC80,[11],0.691 µg/mL
same,MPI,[11],100
same,IC50,[12],0.083 µg/mL
same,IC80,[12],0.339 µg/mL
same,MPI,[12],100
same,IC50,[13],0.089 µg/mL
same,IC80,[13],0.271 µg/mL
same,MPI,[13],100
same,IC50,[14],0.03 µg/mL
same,IC80,[14],0.081 µg/mL
same,MPI,[14],100
same,IC50,[15],0.189 µg/mL
same,IC80,[15],0.595 µg/mL
same,MPI,[15],100
same,IC50,[16],0.152 µg/mL
same,IC80,[16],0.801 µg/mL
same,MPI,[16],97
same,IC50,[17],0.074 µg/mL
same,IC80,[17],0.307 µg/mL
same,MPI,[17],100
same,IC50,[18],> 50 µg/mL
same,IC80,[18],> 50 µg/mL
same,MPI,[18],32
same,IC50,[19],0.058 µg/mL
same,IC80,[19],0.165 µg/mL
same,MPI,[19],100
same,IC50,[20],0.077 µg/mL
same,IC80,[20],0.274 µg/mL
same,MPI,[20],100
same,IC50,[21],0.049 µg/mL
same,IC80,[21],0.185 µg/mL
same,MPI,[21],100
